Results reported in patent US20040219159, “Methods and compositions for therapeutic intervention in infectious disease” (published 2004).

Molecular target: T1, HspR (Rv0353) (Mycobacterium tuberculosis, UniProt O06302 O06302:1-126)
T1 sequence: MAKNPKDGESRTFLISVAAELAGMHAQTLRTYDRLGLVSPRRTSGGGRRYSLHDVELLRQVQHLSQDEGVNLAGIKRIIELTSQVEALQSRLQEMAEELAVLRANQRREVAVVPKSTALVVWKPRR
Assay: EMSA
Settings: tags: His-tag (pQE30, expressed in E. coli SG13009, renatured from urea); label: 32P; annealed 40-mers with short 5' overhangs

B1: HAIR2 oligonucleotide DNAKIR-F/DNAKIR-R (dsDNA)
DNA 1: GCTCAGTAAGTTGAGTGCATCAGGCTCAGCTCTGAATTGA
DNA 2: GTCAATTCAGAGCTGAGCCTGATGCACTCAACTTACTGAG
**Q.** Does B1 bind?
**A.** binds
